Where two headings read alike, the source gives them in different places.

For SYK: SYK (K375R, K517R), the other entry is on record as “changes” (ubiquitination at K375) and “changes” (ubiquitination at K517).
SYK: SYK (Y525F, Y526F): the other result is listed as “no change” (phosphorylation at Y525) and “no change” (phosphorylation at Y526).

(Values after PMC8342987.)
